Blank lines part the entries; values can stand above or below the sequence they belong to.
Key:
HLA-A*24:02 [1] = assay: IEDB peptide-MHC binding, purified MHC/competitive/fluorescence; filed as Kd, often an IC50 or EC50 that approximates it; ≥ and ≤ were set here for values at or beyond the usual limits of such assays; settings: source organism: Entamoeba histolytica HM-1:IMSS
HLA-A*26:02 = assay: as above
HLA-B*18:01 = assay: as above; settings: source organism: Homo sapiens
HLA-A*30:01 = assay: as above; settings: source organism: Homo sapiens
HLA-A*02:06 = assay: as above
HLA-B*39:01 = assay: as above; settings: source organism: Homo sapiens
HLA-A*26:03 = assay: as above; settings: source organism: Homo sapiens
HLA-B*15:01 [2] = assay: as above; settings: source organism: Homo sapiens
HLA-B*08:01 = assay: as above; settings: source organism: Homo sapiens
HLA-A*02:03 = assay: as above
HLA-C*07:02 = assay: IEDB peptide-MHC binding, purified MHC/direct/fluorescence; filed as Kd, often an IC50 or EC50 that approximates it; ≥ and ≤ were set here for values at or beyond the usual limits of such assays
HLA-A*03:01 = assay: IEDB peptide-MHC binding, purified MHC/competitive/fluorescence; ≥ and ≤ were set here for values at or beyond the usual limits of such assays; settings: source organism: Vaccinia virus WR
HLA-A*11:01 = assay: as above; settings: source organism: Vaccinia virus WR
HLA-B*15:01 [3] = assay: as above; settings: source organism: Vaccinia virus WR
HLA-A*24:02 [4] = assay: as above; settings: source organism: Vaccinia virus WR
HLA-A*02:01 [5] = assay: as above; settings: source organism: Vaccinia virus WR
HLA-A*01:01 = assay: as above; settings: source organism: Vaccinia virus WR
HLA-B*35:01 = assay: IEDB peptide-MHC binding, purified MHC/competitive/fluorescence; filed as Kd, often an IC50 or EC50 that approximates it; ≥ and ≤ were set here for values at or beyond the usual limits of such assays; settings: source organism: Human immunodeficiency virus 1
HLA-A*02:01 [6] = assay: as above; settings: source organism: Human immunodeficiency virus 1
HLA-B*15:17 = assay: as above; settings: source organism: Human immunodeficiency virus 1
HLA-B*45:06 = assay: as above; settings: source organism: Mycobacterium tuberculosis variant bovis BCG str. Pasteur 1173P2
HLA-C*04:01 = assay: as above; settings: source organism: Mycobacterium tuberculosis variant bovis BCG str. Pasteur 1173P2
HLA-C*06:02 = assay: as above; settings: source organism: Mycobacterium tuberculosis variant bovis BCG str. Pasteur 1173P2
HLA-B*15:42 = assay: as above; settings: source organism: Mycobacterium tuberculosis variant bovis BCG str. Pasteur 1173P2
HLA-B*83:01 = assay: as above; settings: source organism: Mycobacterium tuberculosis variant bovis BCG str. Pasteur 1173P2
HLA-A*68:23 = assay: as above; settings: source organism: Mycobacterium tuberculosis variant bovis BCG str. Pasteur 1173P2
HLA-C*14:02 = assay: as above; settings: source organism: Mycobacterium tuberculosis variant bovis BCG str. Pasteur 1173P2
[7] = source organism: Human immunodeficiency virus 1

Sequence: EYLRIPLTI
Kd (HLA-A*24:02 [1]): ≤ 0.0001 µM

Kd (HLA-A*26:02; source organism: Homo sapiens): ≥ 20 µM
Kd (HLA-B*18:01): 0.477 µM
Kd (HLA-A*30:01): 4.08 µM
Kd (HLA-A*02:06; source organism: Homo sapiens): ≥ 20 µM
Kd (HLA-B*39:01): ≥ 20 µM
Kd (HLA-A*26:03): ≥ 20 µM
Kd (HLA-B*15:01 [2]): 0.315 µM
Kd (HLA-B*08:01): ≥ 20 µM
Kd (HLA-A*02:03; source organism: Homo sapiens): ≥ 20 µM
Kd (HLA-C*07:02; source organism: Homo sapiens): ≤ 0.001 µM
Sequence: FRHSVVVPY

Sequence: ITCKAFGLY
IC50 (HLA-A*03:01): 15.4 µM
IC50 (HLA-A*11:01): 2.82 µM
IC50 (HLA-B*15:01 [3]): 14 µM
IC50 (HLA-A*24:02 [4]): ≥ 85.1 µM
IC50 (HLA-A*02:01 [5]): ≥ 173 µM
IC50 (HLA-A*01:01): 1.55 µM

Sequence: LYNTIAVLY
Kd (HLA-A*26:02; [7]): ≥ 20 µM
Kd (HLA-A*02:06; [7]): 0.759 µM
Kd (HLA-B*35:01): 1.87 µM
Kd (HLA-A*02:01 [6]): 2.32 µM
Kd (HLA-B*15:17): ≥ 20 µM
Kd (HLA-A*02:03; [7]): 0.721 µM
Kd (HLA-C*07:02; [7]): 2.13 µM

Sequence: MAAVRTTAL
Kd (HLA-B*45:06): ≥ 5 µM
Kd (HLA-C*04:01): ≥ 20 µM
Kd (HLA-C*06:02): 0.104 µM
Kd (HLA-B*15:42): ≥ 5 µM
Kd (HLA-B*83:01): 0.508 µM
Kd (HLA-A*68:23): 0.0055 µM
Kd (HLA-C*14:02): 0.0144 µM

Reference: the Immune Epitope Database (IEDB)
